This data set has as its target T1, CasX 491 (engineered CasX).
T1 chain: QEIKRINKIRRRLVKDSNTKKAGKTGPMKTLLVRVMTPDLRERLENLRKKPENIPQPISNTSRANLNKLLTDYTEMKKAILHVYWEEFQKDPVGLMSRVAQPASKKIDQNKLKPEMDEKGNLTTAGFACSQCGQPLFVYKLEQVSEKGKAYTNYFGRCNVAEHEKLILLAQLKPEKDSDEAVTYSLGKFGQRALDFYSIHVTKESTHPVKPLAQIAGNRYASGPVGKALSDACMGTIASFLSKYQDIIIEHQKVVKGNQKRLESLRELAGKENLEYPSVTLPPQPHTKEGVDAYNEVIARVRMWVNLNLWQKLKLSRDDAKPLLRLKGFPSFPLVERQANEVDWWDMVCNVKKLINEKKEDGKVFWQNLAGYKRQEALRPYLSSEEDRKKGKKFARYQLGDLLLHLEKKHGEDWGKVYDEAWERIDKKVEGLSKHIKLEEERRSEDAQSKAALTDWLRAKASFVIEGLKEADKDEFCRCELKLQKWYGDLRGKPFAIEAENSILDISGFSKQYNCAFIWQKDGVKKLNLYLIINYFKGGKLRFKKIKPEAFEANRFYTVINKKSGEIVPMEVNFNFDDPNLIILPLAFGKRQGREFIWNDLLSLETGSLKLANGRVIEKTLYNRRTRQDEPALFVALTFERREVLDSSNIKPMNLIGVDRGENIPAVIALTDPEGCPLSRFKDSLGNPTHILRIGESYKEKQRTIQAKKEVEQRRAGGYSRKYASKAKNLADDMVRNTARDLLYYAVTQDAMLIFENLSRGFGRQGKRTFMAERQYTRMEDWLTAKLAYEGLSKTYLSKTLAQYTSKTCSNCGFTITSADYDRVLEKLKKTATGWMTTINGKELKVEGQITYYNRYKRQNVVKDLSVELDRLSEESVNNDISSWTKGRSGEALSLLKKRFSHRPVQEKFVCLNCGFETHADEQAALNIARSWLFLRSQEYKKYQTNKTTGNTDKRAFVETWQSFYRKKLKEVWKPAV
Briefly: cell_activity; high dose; about 25% greater at low dose; PAM not stated for this spacer. As for the experimental part: Cells were nucleofected with the indicated doses of p59 plasmids encoding CasX 491, the scaffold, and spacer 11.30 (5' […] 3', SEQ ID NO: 17) targeting mRHO. […] Cells were nucleofected with the indicated doses of p59 plasmids encoding CasX 491, the scaffold, and spacer 12.7 (5' […]-GUUU 3', SEQ ID NO: 1146) targeting repeat elements preventing expression of the tdTomato fluorescent protein. Editing was assessed 5 days post-transfection by FACS, to quantify the fraction of tdTomato positive cells.

These results are taken from US12559743, “Engineered guide scaffolds” (Scribe Therapeutics Inc.).

B1: sgRNA scaffold 235 + spacer 12.7 ; tdTomato locus target (spacer 12.7 protospacer) (ssRNA ; dsDNA)
RNA: ACUGGCGCUUCUAUCUGAUUACUCUGAGCGCCAUCACCAGCGACUAUGUCGUAGUGGGUAAAGCCGCUUACGGACUUCGGUCCGUAAGAGGCAUCAGAGCUGCAUUCUAGUUGUGGUUU
DNA 1: CTGCATTCTAGTTGTGGTTT
DNA 2: AAACCACAACTAGAATGCAG
B1: the activity is ~35 % greater than scaffold 174.
